Results taken from publication PMC2903362 (The Journal of Biological Chemistry, 2010).

T1: FlK (fluoroacetyl-CoA thioesterase; WtFlK) (Streptantibioticus cattleyicolor, UniProt Q1EMV2)
T1 sequence (Q1EMV2 1-139): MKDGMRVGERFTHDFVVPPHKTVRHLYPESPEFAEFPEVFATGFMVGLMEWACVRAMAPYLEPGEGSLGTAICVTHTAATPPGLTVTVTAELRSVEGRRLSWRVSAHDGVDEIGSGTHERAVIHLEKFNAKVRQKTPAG

B1: wild-type FlK (fluoroacetyl-CoA thioesterase FlK) (enzyme, Streptomyces cattleya)
chain: MKDGMRVGERFTHDFVVPPHKTVRHLYPESPEFAEFPEVFATGFMVGLMEWACVRAMAPYLEPGEGSLGTAICVTHTAATPPGLTVTVTAELRSVEGRRLSWRVSAHDGVDEIGSGTHERAVIHLEKFNAKVRQKTPAG
B2: FlK T42S mutant (enzyme, Streptomyces cattleya)
chain: MKDGMRVGERFTHDFVVPPHKTVRHLYPESPEFAEFPEVFASGFMVGLMEWACVRAMAPYLEPGEGSLGTAICVTHTAATPPGLTVTVTAELRSVEGRRLSWRVSAHDGVDEIGSGTHERAVIHLEKFNAKVRQKTPAG
B3: FlK T42A mutant (enzyme, Streptomyces cattleya)
chain: MKDGMRVGERFTHDFVVPPHKTVRHLYPESPEFAEFPEVFAAGFMVGLMEWACVRAMAPYLEPGEGSLGTAICVTHTAATPPGLTVTVTAELRSVEGRRLSWRVSAHDGVDEIGSGTHERAVIHLEKFNAKVRQKTPAG
B4: selenomethionine-labelled wild-type FlK (enzyme, Streptomyces cattleya)
chain: MKDGMRVGERFTHDFVVPPHKTVRHLYPESPEFAEFPEVFATGFMVGLMEWACVRAMAPYLEPGEGSLGTAICVTHTAATPPGLTVTVTAELRSVEGRRLSWRVSAHDGVDEIGSGTHERAVIHLEKFNAKVRQKTPAG
modifications: L-selenomethionine incorporated
B5: FlK E50A mutant (enzyme, Streptomyces cattleya)
chain: MKDGMRVGERFTHDFVVPPHKTVRHLYPESPEFAEFPEVFATGFMVGLMAWACVRAMAPYLEPGEGSLGTAICVTHTAATPPGLTVTVTAELRSVEGRRLSWRVSAHDGVDEIGSGTHERAVIHLEKFNAKVRQKTPAG

Assays:
[1] = biological target: T1, FlK (fluoroacetyl-CoA thioesterase; WtFlK); assay: X-ray crystal structure of complex; assay type: binding; conditions: 10 mM FAcCPan, 100 mM CHES pH 9.5, 0.8 M trisodium citrate; active site
SEC = biological target: the molecule itself; assay: SEC
crystal structure [2] = biological target: the molecule itself; assay: crystal structure
crystal structure [3] = biological target: the molecule itself; assay: crystal structure; remark: listed apart in the source

Molecule | X-ray crystal structure of complex [1] | stoichiometry N (SEC) | stoichiometry N (crystal structure [2]) | stoichiometry N (crystal structure [3])
CC(C)(CO)[C@@H](O)C(=O)NCCC(=O)NCCCC(=O)CF [FAcCPan] | WtFlK in complex with two analogues of fluoroacetyl-pantetheine, FAcCPan, and FAcOPan | – | – | –
B1 | – | 2 | 4 | –
B2 | – | 2 | – | 4
B3 | – | 2 | – | 4
B4 | – | – | – | 2
B5 | – | 2 | – | –
